The values that follow come from PMC8669218.

In this assay the target is extracellular domain of human DPP4 (residues 39-766), wild type (human), P27487. The assay is described as follows: nonreducing SDS-PAGE. The conditions noted are these: remark: other sources report otherwise.

B1: extracellular domain of human DPP4 (residues 39-766), wild type, P27487 39-766 (domain or fragment)
chain: SRKTYTLTDYLKNTYRLKLYSLRWISDHEYLYKQENNILVFNAEYGNSSVFLENSTFDEFGHSINDYSISPDGQFILLEYNYVKQWRHSYTASYDIYDLNKRQLITEERIPNNTQWVTWSPVGHKLAYVWNNDIYVKIEPNLPSYRITWTGKEDIIYNGITDWVYEEEVFSAYSALWWSPNGTFLAYAQFNDTEVPLIEYSFYSDESLQYPKTVRVPYPKAGAVNPTVKFFVVNTDSLSSVTNATSIQITAPASMLIGDHYLCDVTWATQERISLQWLRRIQNYSVMDICDYDESSGRWNCLVARQHIEMSTTGWVGRFRPSEPHFTLDGNSFYKIISNEEGYRHICYFQIDKKDCTFITKGTWEVIGIEALTSDYLYYISNEYKGMPGGRNLYKIQLSDYTKVTCLSCELNPERCQYYSVSFSKEAKYYQLRCSGPGLPLYTLHSSVNDKGLRVLEDNSALDKMLQNVQMPSKKLDFIILNETKFWYQMILPPHFDKSKKYPLLLDVYAGPCSQKADTVFRLNWATYLASTENIIVASFDGRGSGYQGDKIMHAINRRLGTFEVEDQIEAARQFSKMGFVDNKRIAIWGWSYGGYVTSMVLGSGSGVFKCGIAVAPVSRWEYYDSVYTERYMGLPTPEDNLDHYRNSTVMSRAENFKQVEYLLIHGTADDNVHFQQSAQISKALVDVGVDFQAMWYTDEDHGIASSTAHQHIYTHMSHFIKQCFSLP
modifications: here or on the partner: glycosylated (sites not given); glycosylated (sites not given)
In turn, B1 yielded a dimer percent of 40.8%.
